EC50 (nM), cleavage of purified hC3 in vitro data for 31 molecules are collected here from US20240018502A1.

Changes are numbered by the printed parent chain. Names may count otherwise.

In this test the target is human complement protein C3 (human) (UniProt P01024). Briefly: cell-based or functional assay.
Chain of human complement protein C3 (human) (P01024 23-667, chain 1 of 2): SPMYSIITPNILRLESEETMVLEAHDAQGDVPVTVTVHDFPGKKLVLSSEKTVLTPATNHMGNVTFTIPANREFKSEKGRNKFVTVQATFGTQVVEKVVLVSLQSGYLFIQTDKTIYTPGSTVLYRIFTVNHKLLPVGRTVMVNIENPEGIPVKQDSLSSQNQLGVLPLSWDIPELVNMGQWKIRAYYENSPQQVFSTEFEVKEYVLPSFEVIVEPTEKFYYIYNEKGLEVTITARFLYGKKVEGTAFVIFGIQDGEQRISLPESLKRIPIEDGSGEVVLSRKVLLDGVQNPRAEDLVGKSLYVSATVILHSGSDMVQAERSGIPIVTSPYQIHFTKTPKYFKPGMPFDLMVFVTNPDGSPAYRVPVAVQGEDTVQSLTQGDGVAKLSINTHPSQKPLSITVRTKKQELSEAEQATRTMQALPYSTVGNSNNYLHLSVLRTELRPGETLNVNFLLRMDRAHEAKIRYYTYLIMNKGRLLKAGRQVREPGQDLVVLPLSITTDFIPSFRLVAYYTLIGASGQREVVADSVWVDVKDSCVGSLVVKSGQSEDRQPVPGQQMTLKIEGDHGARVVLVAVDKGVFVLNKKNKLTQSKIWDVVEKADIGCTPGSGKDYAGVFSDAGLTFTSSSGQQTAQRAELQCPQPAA
Chain of human complement protein C3 (human) (P01024 672-1663, chain 2 of 2): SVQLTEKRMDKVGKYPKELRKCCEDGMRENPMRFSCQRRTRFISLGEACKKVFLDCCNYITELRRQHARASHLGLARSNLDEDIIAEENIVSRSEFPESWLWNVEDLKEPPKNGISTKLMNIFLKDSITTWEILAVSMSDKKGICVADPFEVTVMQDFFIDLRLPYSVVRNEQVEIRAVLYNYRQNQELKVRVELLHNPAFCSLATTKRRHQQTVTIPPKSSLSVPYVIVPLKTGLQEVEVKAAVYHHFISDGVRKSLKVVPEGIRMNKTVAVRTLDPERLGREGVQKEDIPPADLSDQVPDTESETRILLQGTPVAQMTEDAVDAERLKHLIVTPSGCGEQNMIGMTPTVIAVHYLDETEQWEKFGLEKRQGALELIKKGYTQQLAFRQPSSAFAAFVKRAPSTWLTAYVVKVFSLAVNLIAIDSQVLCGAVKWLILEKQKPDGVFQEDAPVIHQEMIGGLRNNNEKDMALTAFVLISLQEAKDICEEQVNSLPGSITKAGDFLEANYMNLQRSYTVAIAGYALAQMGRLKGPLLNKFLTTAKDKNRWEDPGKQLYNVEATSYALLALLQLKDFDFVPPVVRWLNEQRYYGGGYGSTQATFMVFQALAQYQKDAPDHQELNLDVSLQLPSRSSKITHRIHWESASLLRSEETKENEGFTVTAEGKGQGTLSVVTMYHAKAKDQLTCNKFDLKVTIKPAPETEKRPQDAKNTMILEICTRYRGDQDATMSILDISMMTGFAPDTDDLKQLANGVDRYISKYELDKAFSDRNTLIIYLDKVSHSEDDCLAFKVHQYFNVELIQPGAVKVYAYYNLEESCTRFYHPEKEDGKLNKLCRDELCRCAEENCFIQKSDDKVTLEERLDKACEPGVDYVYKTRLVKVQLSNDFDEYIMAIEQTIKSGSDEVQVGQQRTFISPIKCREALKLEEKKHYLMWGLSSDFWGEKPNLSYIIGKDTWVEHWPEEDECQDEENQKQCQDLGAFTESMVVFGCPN

B1: Q38H/I41A/D60bV/F60eR/Y60gW/D96I/F97N/T98G/F99L/C122S/G151H/Q175L/Q192D (enzyme)
chain: VVGGTDADEGEWPWQVSLHALGHGHACGASLISPNWLVSAAHCYIDVRGRRWSDPTQWTAFLGLHDQSQRSAPGVQERRLKRIISHPFFNINGLDYDIALLELEKPAEYSSMVRPISLPDASHVFPAGKAIWVTGWGHTQYGGTHALILQKGEIRVINQTTCENLLPQLITPRMMCVGFLSGGVDSCDGDSGGPLSSVEADGRIFQAGVVSWGDGCAQRNKPGVYTRLPLFRDWIKENTGV
Take B1: the EC50 (nM), cleavage of purified hC3 in vitro was found to be 2.52 nM.

B2: Q38H/I41S/D60bT/F60eS/Y60gW/D96I/F97N/T98G/F99L/C122S/G151N/Q175L/Q192D (enzyme)
chain: B1 chain with A26S, V47T, R50S, H145N
With B2, the EC50 (nM), cleavage of purified hC3 in vitro was 3.04 nM.

B3: Q38Y/I41S/D60bT/Y60gW/D96M/F97N/T98G/F99L/C122S/G151N/Q175L/Q192D (enzyme)
chain: B1 chain with H23Y, A26S, V47T, R50F, I91M, H145N
Consider B3, for which the EC50 (nM), cleavage of purified hC3 in vitro came to 3.08 nM.

B4: H40R/I41H/F97D/F99L/C122S/Q175M/Q192G/D217V/K224Y (enzyme)
chain: VVGGTDADEGEWPWQVSLHALGQGRHCGASLISPNWLVSAAHCYIDDRGFRYSDPTQWTAFLGLHDQSQRSAPGVQERRLKRIISHPFFNDDTLDYDIALLELEKPAEYSSMVRPISLPDASHVFPAGKAIWVTGWGHTQYGGTGALILQKGEIRVINQTTCENLLPQMITPRMMCVGFLSGGVDSCGGDSGGPLSSVEADGRIFQAGVVSWGVGCAQRNYPGVYTRLPLFRDWIKENTGV
B4: the EC50 (nM), cleavage of purified hC3 in vitro was determined as 2.76 nM.

B5: I41G/F97I/F99L/C122S/G151L/Q175M/Q192S/D217V (enzyme)
chain: B4 chain with R25H, H26G, D92I, G145L, G188S, Y221K
In turn, B5 registered an EC50 (nM), cleavage of purified hC3 in vitro of 2.84 nM.

B6: ins97aY/F97G/T98V/C122S/Q175M/Q192S/D217V (enzyme)
chain: VVGGTDADEGEWPWQVSLHALGQGHICGASLISPNWLVSAAHCYIDDRGFRYSDPTQWTAFLGLHDQSQRSAPGVQERRLKRIISHPFFNDGYVFDYDIALLELEKPAEYSSMVRPISLPDASHVFPAGKAIWVTGWGHTQYGGTGALILQKGEIRVINQTTCENLLPQMITPRMMCVGFLSGGVDSCSGDSGGPLSSVEADGRIFQAGVVSWGVGCAQRNKPGVYTRLPLFRDWIKENTGV
Molecule B6 yielded an EC50 (nM), cleavage of purified hC3 in vitro of 2.42 nM.

B7: Q38H/I41S/D60bT/F60eS/Y60gW/D96K/F97G/ins97aA/T98P/F99L/C122S/G151H/Q175L/Q192D (enzyme)
chain: VVGGTDADEGEWPWQVSLHALGHGHSCGASLISPNWLVSAAHCYIDTRGSRWSDPTQWTAFLGLHDQSQRSAPGVQERRLKRIISHPFFNKGAPLDYDIALLELEKPAEYSSMVRPISLPDASHVFPAGKAIWVTGWGHTQYGGTHALILQKGEIRVINQTTCENLLPQLITPRMMCVGFLSGGVDSCDGDSGGPLSSVEADGRIFQAGVVSWGDGCAQRNKPGVYTRLPLFRDWIKENTGV
B7: the EC50 (nM), cleavage of purified hC3 in vitro is 1.43 nM.

B8: Q38H/I41A/D60bT/F60eH/Y60gW/ins97aE/F97T/T98G/F99L/C122S/Q175L/Q192D (enzyme)
chain: B7 chain with S26A, S50H, K91D, G92T, A93E, P94G, H146G
In the case of B8, the EC50 (nM), cleavage of purified hC3 in vitro turned out to be 2.28 nM.

B9: Q38H/I41S/D60bT/F60eS/Y60gW/D96K/F97G/ins97aV/T98P/F99L/C122S/G151H/Q175L (enzyme)
chain: B7 chain with A93V, D189Q
B9 had an EC50 (nM), cleavage of purified hC3 in vitro of 1.45 nM.

B10: Q38F/I41S/D60bF/F60eR/Y60gF/F97T/ins97aE/T98G/F99L/C122S/G151N/Q175L/Q192V (enzyme)
chain: B7 chain with H23F, T47F, S50R, W52F, K91D, G92T, A93E, P94G, H146N, D189V
The molecule B10 came in with an EC50 (nM), cleavage of purified hC3 in vitro of 1.96 nM.

B11: Q38H/I41A/D60bV/F60eR/Y60gW/D96P/ins97aN/F97W/T98G/F99L/C122S/G151H/Q175L/Q192D (enzyme)
chain: B7 chain with S26A, T47V, S50R, K91P, G92W, A93N, P94G
Take B11: the EC50 (nM), cleavage of purified hC3 in vitro is 1.83 nM.

B12: Q38H/I41A/D60bV/F60eR/Y60gW/D96P/ins97aN/F97W/T98G/F99L/C122S/G151N/Q175L/Q192D (enzyme)
chain: B7 chain with S26A, T47V, S50R, K91P, G92W, A93N, P94G, H146N
The molecule B12 yielded an EC50 (nM), cleavage of purified hC3 in vitro of 2.54 nM.

B13: Q38H/I41A/D60bV/F60eR/Y60gW/D96P/ins97aN/F97W/T98G/F99L/C122S/G151N/Q175L/Q192E (enzyme)
chain: B7 chain with S26A, T47V, S50R, K91P, G92W, A93N, P94G, H146N, D189E
B13: the EC50 (nM), cleavage of purified hC3 in vitro is 1.51 nM.

B14: Q38H/I41A/D60bV/F60eA/Y60gW/F97T/ins97aE/T98G/F99L/C122S/Q175L/Q192V (enzyme)
chain: B7 chain with S26A, T47V, S50A, K91D, G92T, A93E, P94G, H146G, D189V
As for B14, the EC50 (nM), cleavage of purified hC3 in vitro worked out at 1.57 nM.

B15: Q38H/I41S/D60bT/F60eS/Y60gW/D96L/ins97aG/F97D/T98N/F99L/C122S/G151H/Q175L/Q192E (enzyme)
chain: B7 chain with K91L, G92D, A93G, P94N, D189E
B15 yielded an EC50 (nM), cleavage of purified hC3 in vitro of 1.59 nM.

B16: Q38H/I41S/D60bF/F60eV/F97D/ins97aV/T98P/F99L/C122S/G151N/Q175L/Q192A (enzyme)
chain: B7 chain with T47F, S50V, W52Y, K91D, G92D, A93V, H146N, D189A
B16 gave an EC50 (nM), cleavage of purified hC3 in vitro of 1.57 nM.

B17: Q38H/I41A/D60bV/F60eR/Y60gW/ins97aE/F97T/T98G/F99L/C122S/Q175L/Q192D (enzyme)
chain: B7 chain with S26A, T47V, S50R, K91D, G92T, A93E, P94G, H146G
B17 registered an EC50 (nM), cleavage of purified hC3 in vitro of 2.37 nM.

B18: Q38H/I41A/D60bV/F60eR/Y60gW/D96I/ins97aN/F97Y/T98G/F99L/C122S/G151N/Q175L/Q192D (enzyme)
chain: B7 chain with S26A, T47V, S50R, K91I, G92Y, A93N, P94G, H146N
In the case of B18, the EC50 (nM), cleavage of purified hC3 in vitro was determined as 2.23 nM.

B19: Q38H/I41A/D60bT/F60eK/Y60gW/F97T/ins97aE/T98G/F99L/C122S/Q175L/Q192A (enzyme)
chain: B7 chain with S26A, S50K, K91D, G92T, A93E, P94G, H146G, D189A
Take B19: the EC50 (nM), cleavage of purified hC3 in vitro amounted to 2.71 nM.

B20: Q38H/I41S/D60bF/F60eT/ins97aV/F97D/T98P/F99L/C122S/H143Q/G151N/Q175L/Q192G (enzyme)
chain: B7 chain with T47F, S50T, W52Y, K91D, G92D, A93V, H139Q, H146N, D189G
On to B20, for which the EC50 (nM), cleavage of purified hC3 in vitro stood at 3.07 nM.

B21: Q38H/I41A/D60bV/F60eR/Y60gW/D96S/ins97aR/F97A/T98S/F99L/C122S/G151N/Q175L/Q192T (enzyme)
chain: B7 chain with S26A, T47V, S50R, K91S, G92A, A93R, P94S, H146N, D189T
For B21, the EC50 (nM), cleavage of purified hC3 in vitro was 2.07 nM.

B22: Q38H/I41A/D60bV/F60eI/Y60gW/F97T/ins97aE/T98G/F99L/C122S/G151N/Q175L/Q192D (enzyme)
chain: B7 chain with S26A, T47V, S50I, K91D, G92T, A93E, P94G, H146N
The molecule B22 displayed an EC50 (nM), cleavage of purified hC3 in vitro of 2.91 nM.

B23: Q38H/I41S/D60bT/F60eS/Y60gW/D96K/F97G/ins97aV/T98P/F99L/C122S/T150S/G151H/Q175L/Q192D/Q209L (enzyme)
chain: B7 chain with A93V, T145S, Q207L
As to B23, the EC50 (nM), cleavage of purified hC3 in vitro is 2.88 nM.

B24: Q38H/I41A/D60bV/F60eR/Y60gW/D96I/ins97aN/F97Y/T98G/F99L/C122S/G151H/Q175L/Q192D (enzyme)
chain: B7 chain with S26A, T47V, S50R, K91I, G92Y, A93N, P94G
B24 had an EC50 (nM), cleavage of purified hC3 in vitro of 1.57 nM.

B25: Q38H/I41S/D60bT/F60eS/Y60gW/D96V/F97G/ins97aV/T98P/F99L/C122S/G151H/Q175L/Q192D (enzyme)
chain: B7 chain with K91V, A93V
In turn, B25 yielded an EC50 (nM), cleavage of purified hC3 in vitro of 2.85 nM.

B26: Q38H/I41A/F60eH/Y60gW/ins97aE/F97T/T98G/F99L/C122S/Q175L/Q192A (enzyme)
chain: B7 chain with S26A, T47D, S50H, K91D, G92T, A93E, P94G, H146G, D189A
The molecule B26 yielded an EC50 (nM), cleavage of purified hC3 in vitro of 3.09 nM.

B27: I41T/D60bW/F60eH/F97D/ins97aV/T98P/F99L/C122S/G151N/Q175L/Q192G (enzyme)
chain: B7 chain with H23Q, S26T, T47W, S50H, W52Y, K91D, G92D, A93V, H146N, D189G
B27 yielded an EC50 (nM), cleavage of purified hC3 in vitro of 3.1 nM.

B28: Q38H/I41S/D60bY/D96Y/ins97aV/F97D/T98P/F99L/L106M/C122S/I136M/Q192G/Q209L/D217T (enzyme)
chain: VVGGTDADEGEWPWQVSLHALGHGHSCGASLISPNWLVSAAHCYIDYRGFRYSDPTQWTAFLGLHDQSQRSAPGVQERRLKRIISHPFFNYDVPLDYDIALMELEKPAEYSSMVRPISLPDASHVFPAGKAMWVTGWGHTQYGGTGALILQKGEIRVINQTTCENLLPQQITPRMMCVGFLSGGVDSCGGDSGGPLSSVEADGRIFLAGVVSWGTGCAQRNKPGVYTRLPLFRDWIKENTGV
Take B28: the EC50 (nM), cleavage of purified hC3 in vitro stood at 1.97 nM.

B29: Q38Y/I41A/D60bL/F60eQ/ins97aV/F97D/T98P/F99L/C122S/G151N/Q175M/Q192A (enzyme)
chain: VVGGTDADEGEWPWQVSLHALGYGHACGASLISPNWLVSAAHCYIDLRGQRYSDPTQWTAFLGLHDQSQRSAPGVQERRLKRIISHPFFNDDVPLDYDIALLELEKPAEYSSMVRPISLPDASHVFPAGKAIWVTGWGHTQYGGTNALILQKGEIRVINQTTCENLLPQMITPRMMCVGFLSGGVDSCAGDSGGPLSSVEADGRIFQAGVVSWGDGCAQRNKPGVYTRLPLFRDWIKENTGV
B29 returned an EC50 (nM), cleavage of purified hC3 in vitro of 1.53 nM.

B30: Q38H/I41A/D60bW/ins97aV/F97D/T98P/F99L/C122S/I136M/Q192G/D217N (enzyme)
chain: B28 chain with S26A, Y47W, Y91D, M102L, L207Q, T215N
B30 gave an EC50 (nM), cleavage of purified hC3 in vitro of 3.06 nM.

B31: Q38H/I41S/D60bS/ins97aV/F97D/T98P/F99L/M117L/C122S/I136T/Q192G/D217I (enzyme)
chain: B28 chain with Y47S, Y91D, M102L, M113L, M132T, L207Q, T215I
As to B31, the EC50 (nM), cleavage of purified hC3 in vitro is 2.43 nM.
